Data as given in patent US20110300156A1 (Genmab, published 2011).
Blank lines part the entries; values can stand above or below the binder they belong to.

What was measured:
[1] = target: T1, human tissue factor (TF), membrane-bound on cells (human, UniProt P13726 33-295); experiment: FACS, Bx-PC3 cells
T1 construct: whole, on cells; also called cellular TF
Procedure: (§1) Cells were resuspended in PBS (2×10⁶ cells/ml), put in 96-well V-bottom plates (50 μl/well). 50 μl of serially diluted HuMab in FACS buffer (PBS supplemented with 0.1% BSA and 0.02% Na-azide) was added to the cells and incubated for 30 minutes on ice. After washing three times with FACS buffer, 50 μl of phycoerythrin (PE)-conjugated goat anti-human IgGFc (Jackson ImmunoResearch), diluted 1:100 in FACS buffer, was added. After 30 minutes on ice (in the dark), cells were washed three times, and specific binding of the HuMabs was detected by flow cytometry on a FACSCalibur (BD Biosciences). HuMab-KLH was used as a negative control. Mouse anti-TF followed by PE-conjugated anti-mouse IgGFc was used as positive control. Binding curves were analyzed using non-linear regression (sigmoidal dose-response with variable slope) using GraphPad Prism V4.03 software (GraphPad Software, San Diego, Calif., USA).

[2] = target: T1, human tissue factor (TF), …; experiment: FACS, MDA-MB-231 cells
Procedure: as §1

[3] = target: T1, human tissue factor (TF), …; experiment: cell-based or functional assay
[4] = target: T1, human tissue factor (TF), …; experiment: FACS, A431 cells, 30 µg/mL
Procedure: as §1

[5] = target: T2, murine tissue factor (TF) on transfected HEK293F cells (murine, UniProt P20352 29-294); experiment: FACS on transfected HEK293F cells, 30 µg/mL antibody [panel K]
T2 construct: whole, on cells; also called murine TF; TFmm
T2 sequence (looked up): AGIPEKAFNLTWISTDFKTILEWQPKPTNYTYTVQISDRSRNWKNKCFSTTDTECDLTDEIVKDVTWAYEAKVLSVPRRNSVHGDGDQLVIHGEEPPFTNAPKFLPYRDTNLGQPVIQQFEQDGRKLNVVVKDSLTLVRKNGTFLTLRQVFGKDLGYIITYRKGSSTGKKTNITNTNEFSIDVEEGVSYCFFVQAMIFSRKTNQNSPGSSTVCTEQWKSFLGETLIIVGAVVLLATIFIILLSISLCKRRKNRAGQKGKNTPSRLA

[6] = target: T1, human tissue factor (TF), …; experiment: FACS, TF transfected CHO cells (S1015-TF), 7.5 µg/mL
Procedure: as §1

[7] = target: T1, human tissue factor (TF), …; experiment: FACS, Bx-PC3 cells, 30 µg/mL
Procedure: as §1

[8] = target: T3, TF (Innovin) (UniProt P13726 33-295, limits assumed); experiment: cell-based or functional assay
[9] = target: T1, human tissue factor (TF), …; experiment: cell-based or functional assay; remark: listed apart in the source
[10] = target: T1, human tissue factor (TF), …; experiment: FACS on MDA-MB-231 cells (~900.000 TF molecules/cell) [panel MDA-MB-231 cells]
Procedure: as §1
(§2) Binding of anti-TF HuMabs to membrane-bound TF on cell lines expressing different levels of TF was determined by FACS analysis, essentially as described supra. Mouse anti-TF antibody followed by PE-conjugated anti-mouse IgGFc was used as a positive control. Fluorescence was measured on a FACSCantoII. Binding curves were analyzed essentially as described supra, using GraphPad Prism 5 software. The amount of TF molecules on cell lines was determined by Qifi kit (Dako, Glostrup, Denmark), according to the manufacturer's instructions.

[11] = target: T1, human tissue factor (TF), …; experiment: FACS, TF transfected CHO cells (S1015-TF)
Procedure: as §1

[12] = target: T4, TFECDHis (extracellular domain of tissue factor, amino acid 1-251, with C-terminal His tag) (human, UniProt P13726 33-251); experiment: SPR avidity format: TFECDHis immobilized, bivalent HuMab as analyte (printed as avidity nM)
T4 construct: range 1-251; The stated range 1-251 starts at residue 1 of NP-001984; also called extracellular domain of TF
Procedure: Antibody binding to TF was analyzed by surface plasmon resonance in a BIAcore 3000 (GE Healthcare). TFECDHis was used for the analysis. HuMab antibodies (500 resonance units) were immobilized on the CM-5 sensor chip according to the procedure recommended by the manufacturer. Briefly, after surface activation by EDC and NHS HuMab antibody was injected over the activated CM-5 surface in 10 mM sodium-acetate, pH ranging from 4.0 to 5.5 at 5 μl/min. followed by 1 M Ethanolamine for deactivation. Concentration series of TFECDHis in HBS-EP buffer were injected over the immobilized antibodies at a flow rate of 30 μl/min for 180 sec. Regeneration of the HuMab surface was performed by injection of 10 mM Glycine-HCl pH 2.0 or 10 mM sodium acetate pH 3.0. Kinetic analysis was performed using double reference subtraction and model 1:1 (langmuir) binding analysis.
TF (TFECDHis) binding to TF-specific HuMabs was determined essentially as described above, with TFECDHis being immobilized on the CM-5 sensor chip (300 resonance units), and concentration series of Humab antibodies used for kinetic analysis. Kinetic analysis was performed using double reference subtraction and model 1:1 (langmuir) binding analysis.

[13] = target: T4, TFECDHis (extracellular domain of …); experiment: competition ELISA, inhibition of FVIIa (100 nM) binding to coated TFECDHis
Procedure: ELISA plates were coated overnight with TFECDHis (0.5 μg/mL, 100 μL per well). Plates were emptied, blocked with PBS containing 2% (v/v) chicken serum (1 hour, RT), and emptied again. […] Plates were washed and incubated with swine-anti-rabbit IgG-HRP antibody (1:2,500; DAKO). After washing, the immune complexes were visualized using ABTS as a substrate.

[14] = target: T1, human tissue factor (TF), …; experiment: FACS, MDA-MB-231 cells, 30 µg/mL
Procedure: as §1

[15] = target: T1, human tissue factor (TF), …; experiment: FACS, A431 cells
Procedure: as §1

[16] = target: T1, human tissue factor (TF), …; experiment: cell-based or functional assay; remark: listed apart in the source
[17] = target: T1, human tissue factor (TF), …; experiment: FACS on AsPC-1 cells (~175.000 TF molecules/cell) [panel AsPC-1 cells]
Procedure: as §1, §2

[18] = target: T2, murine tissue factor (TF) on …; experiment: FACS on transfected HEK293F cells, 30 µg/mL antibody [panel N]
[19] = target: T3, TF (Innovin); experiment: cell-based or functional assay; remark: listed apart in the source
[20] = target: T2, murine tissue factor (TF) on …; experiment: FACS on transfected HEK293F cells, 30 µg/mL antibody [panel L]
[21] = target: T4, TFECDHis (extracellular domain of …); experiment: ELISA, coated TFECDHis, mean of 3
Procedure: The specificity of the obtained anti-TF HuMabs was evaluated by ELISA. ELISA plates (Microlon; Greiner Bio-One) were coated overnight at +4° C. with 0.5 μg/mL of TFECDHis in PBS, pH 7.4. Coated ELISA plates were emptied and blocked for one hour at room temperature with 2% (v/v) chicken serum (Gibco, Paisley, Scotland) in PBS and washed with PBS containing 0.05% Tween 20 (PBST). Subsequently, HuMabs, serially diluted in PBSTC (PBS supplemented with 2% (v/v) chicken serum and 0.05% (v/v) Tween-20), were incubated for 1 hr at RT under shaking conditions (300 rpm). Bound HuMabs were detected using HRP-conjugated goat-anti-human IgG antibodies (Jackson ImmunoResearch) diluted 1:5,000 in PBSTC, which were incubated for 1 hr at RT under shaking conditions (300 rpm). […] HuMab-KLH (a human monoclonal antibody against KLH (keyhole limpet haemocyanin)), was used as a negative control. Mouse anti-human TF (ERL) was used as positive control (HRP labeled anti-mouse IgG as conjugate). Binding curves were analyzed using non-linear regression (sigmoidal dose-response with variable slope) using GraphPad Prism V4.03 software.

[22] = target: T2, murine tissue factor (TF) on …; experiment: FACS on transfected HEK293F cells, 30 µg/mL antibody [panel O]

EC50 [1]: 1380 pM
EC50 [2]: 990 pM
IC50, inhibition of FVIIa induced IL-8 release (MDA-MB-231) [3]: 9300 pM
max inhibition of FVIIa induced IL-8 release (MDA-MB-231) [3]: 59%
Max MFI [4]: 2760
binding result [5]: no binding (tested: 30 µg/mL)
Max MFI [6]: 5230
Max MFI [7]: 1150
% max inhibition of FXa generation [8]: 14%
IC50, inhibition of FXa generation [8]: 430 pM
% max inhibition of FVIIa induced ERK phosphorylation (A431) [9]: 64%
IC50, inhibition of FVIIa induced ERK phosphorylation (A431) [9]: 1890 pM
EC50 (read off the curve) [10]: ~0.05 µg/mL
EC50 [11]: 960 pM
Kd [12]: 4850 pM
IC50 [13]: 800 pM
max inhibition [13]: 85%
Max MFI [14]: 1960
EC50 [15]: 1400 pM
EC50 of ADCC, A431 cells [16]: 70 pM
EC50 of ADCC, Bx-PC3 cells [16]: 20 pM
EC50 of ADCC, MDA-MB-231 cells [16]: 150 pM
B1: anti-TF HuMab 098 (antibody, V domains shown)
VH: QVQLVQSGAEVRKPGSSVKVSCKASGGSFNNYPIFWVRQAPGQGFEWMGRIIPILGITAYAQKFQGRVTITADKSTSTAYMELNSLRSEDTAVYYCAGGDDLDAFDIWGQGTMVSVSS
VL: DIQMTQSPSSLSASVGDRVTITCRASQGISSWLAWYQQKPEKAPKSLIYAASSLQSGVPSRFSGSGSGTDFTLTISSLQPEDFATYYCQQYNSYPYTFGQGTKLEIK
notes: Human monoclonal antibody from HuMab mice; also called HuMab-TF-098; HuMab-TF-98

EC50 [1]: 1830 pM
EC50 [2]: 1030 pM
IC50, inhibition of FVIIa induced IL-8 release (MDA-MB-231) [3]: > 200000 pM
max inhibition of FVIIa induced IL-8 release (MDA-MB-231) [3]: 40.1%
Max MFI [4]: 3040
Max MFI [6]: 5350
Max MFI [7]: 1130
% max inhibition of FXa generation [8]: 7%
IC50, inhibition of FXa generation [8]: 70 pM
EC50 (read off the curve) [17]: ~0.1 µg/mL
% max inhibition of FVIIa induced ERK phosphorylation (A431) [9]: 52%
IC50, inhibition of FVIIa induced ERK phosphorylation (A431) [9]: > 66600 pM
EC50 (read off the curve) [10]: ~0.06 µg/mL
EC50 [11]: 550 pM
Kd [12]: 110 pM
max inhibition [13]: 79%
Max MFI [14]: 1770
binding result [18]: no binding (tested: 30 µg/mL)
EC50 [15]: 2880 pM
EC50 of ADCC, A431 cells [16]: 1560 pM
EC50 of ADCC, MDA-MB-231 cells [16]: 840 pM
B2: anti-TF HuMab 111 (antibody, V domains shown)
VH: QVQLVESGGGVVQPGRSLRLSCAGSGFTFNRYAMYWVRQAPGKGLDWVAVISNDGINKYYADSVKGRFTISRDNSKNTLYLQMNSLRAEDTAVYYCARDHTMVRGAFDYWGQGTLVTVSS
VL: EIVLTQSPATLSLSPGERATLSCRASQSVSSYLAWYQQKPGQAPRLLIYDASNRATGIPARFSGSGSGTDFTLTISSLEPEDFAVYYCQQRSNWPLTFGGGTKVEIK
notes: Human monoclonal antibody from HuMab mice

EC50 [1]: 2250 pM
EC50 [2]: 850 pM
IC50, inhibition of FVIIa induced IL-8 release (MDA-MB-231) [3]: 22700 pM
max inhibition of FVIIa induced IL-8 release (MDA-MB-231) [3]: 74.9%
Max MFI [4]: 2930
Max MFI [6]: 5860
Max MFI [7]: 1220
IC50, inhibition of blood coagulation (TF induced clotting time) [19]: 700 pM
% max inhibition of FVIIa induced ERK phosphorylation (A431) [9]: 57%
IC50, inhibition of FVIIa induced ERK phosphorylation (A431) [9]: 1050 pM
binding result [20]: no binding (tested: 30 µg/mL)
EC50 [11]: 1770 pM
Max MFI [14]: 2070
EC50 [15]: 3160 pM
EC50 [21]: 280 pM
EC50 of ADCC, A431 cells [16]: 10 pM
EC50 of ADCC, Bx-PC3 cells [16]: 90 pM
EC50 of ADCC, MDA-MB-231 cells [16]: 100 pM
B3: anti-TF HuMab 101 (antibody, V domains shown)
VH: EVQLLESGGGLVQPGGSLRLSCAASGFTFSNYAMSWVRQAPAKGLDWVSGISGSGVTTYYADSVKGRFTISRDNSKDTLYLQMNSLRAEDTAVYFCAKTPWGYYFDYWGQGILVAVSS
VL: DIQMTQSPSSLSASVGDRVTITCRASQGISSWLAWYQQKPEKAPKSLIYAASSLQSGVPSRFSGSGSGTDFTLTISSLQPEDFATYYCQQYNSYPLYTFGQGTKLEIK
notes: as for B2

binding result [22]: no binding (tested: 30 µg/mL)
max inhibition [13]: 90%
B4: anti-TF HuMab 114 (antibody, V domains shown)
VH: QVQLVESGGGVVQPGRSLRLSCVASGFTVSNDGMHWVRQAPGKGLEWVALIWYDGVNKNYADSVKGRFTISRDKSKNTLYLQMNSLRAEDTAVYYCARRPGTFYGLDVWGQGTTVTVSS
VL: not shown
notes: as for B2
